One may read the Kd as the concentration at which binding is half-saturated. The low end stands for tighter binding, the high end for weaker binding. For orientation: stoichiometry N means the number of molecules, sites or subunits per partner or assembly.

Where “and” joins values, the source holds several entries; their conditions need not be identical. Equal entries are not always repeated.

This note sets out measurements from paper PMC9304225.

For assay [1], the target named is p53 transactivation domain (residues 1–73) (human) (UniProt P04637). The assay can be described thus: NMR titration.
Chain of p53 transactivation domain (residues 1–73) (human) (P04637 1-73): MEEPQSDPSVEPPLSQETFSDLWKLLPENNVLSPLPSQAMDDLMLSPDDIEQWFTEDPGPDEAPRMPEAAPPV
Another assay concerns the target UBE2D2 (UniProt P62837). The assay can be described thus: ITC. (In ITC the heat of successive injections is recorded.)
Assay [2] has as its target RING_(MUL1):UBE2D2 complex (UniProt Q969V5). The assay is described as follows: ITC.

Chain of RING domain of MUL1 (residues 298–352) (Q969V5 298-352): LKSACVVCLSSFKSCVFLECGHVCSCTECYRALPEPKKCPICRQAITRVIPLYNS
Chain of p53 transactivation domain (residues 1–73) (P04637 1-73): as the sequence (P04637 1-73) above

Regarding “RING_(MUL1):UBE2D2 complex (from UniProt Q969V5 298-352; P62837 1-147)”, the Kd in assay [1] was 171 µM.

“UBE2D2 (from UniProt P62837 1-147) (enzyme)” showed a Kd in assay [1] of 735 µM.

With “RING domain of MUL1 (residues 298–352) (from UniProt Q969V5 298-352) (domain or fragment)”, in the assay with UBE2D2, the dissociation constant Kd is 43 µM and 28 µM and 13 µM; the dH is 1.5 kcal/mol.

Regarding AD39 peptide (p53 residues 39–57), in assay [2], the Kd is 184 µM and 175 µM and 193 µM; the dH is -1.13 kcal/mol and -1.15 kcal/mol and -1.12 kcal/mol; the stoichiometry N is 0.88 and 0.89 and 0.87.

In assay [2], “p53 transactivation domain (residues 1–73) (from UniProt P04637 1-73) (domain or fragment)” gave a dissociation constant Kd of 111 µM, a dH of -0.673 kcal/mol and a stoichiometry N of 1.01.
